Experimental findings from patent publication US20170313756A1 are described below.

As usually defined, the Ki is a measure of affinity in units of concentration, obtained from inhibition or displacement. A lower Ki goes with a stronger hold on the target.

Common to all, as to experiment: 125I-NDP-MSH competition, HEK293 membranes
In assay [1] the target is melanocortin 1 receptor (MC1R) (UniProt Q01726).
Assay [2] has the same target. The source holds these as a separate data set.
Assay [3] shares this target. The source holds these as a separate data set.
Assay [4] addresses melanocortin 5 receptor (MC5R) (UniProt P33032).

Read-outs that look alike come from different tables or passages of the source.

Sequence of melanocortin 1 receptor (MC1R) (Q01726 whole entry): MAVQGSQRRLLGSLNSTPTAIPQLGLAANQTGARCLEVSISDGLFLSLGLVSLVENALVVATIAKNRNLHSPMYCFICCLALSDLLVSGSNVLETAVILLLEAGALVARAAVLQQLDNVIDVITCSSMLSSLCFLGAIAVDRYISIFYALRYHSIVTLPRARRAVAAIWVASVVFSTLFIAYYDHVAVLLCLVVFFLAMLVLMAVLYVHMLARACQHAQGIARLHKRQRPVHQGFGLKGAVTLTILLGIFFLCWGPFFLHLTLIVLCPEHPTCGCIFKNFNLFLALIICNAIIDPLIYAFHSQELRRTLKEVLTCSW
Sequence of melanocortin 5 receptor (MC5R) (P33032 whole entry): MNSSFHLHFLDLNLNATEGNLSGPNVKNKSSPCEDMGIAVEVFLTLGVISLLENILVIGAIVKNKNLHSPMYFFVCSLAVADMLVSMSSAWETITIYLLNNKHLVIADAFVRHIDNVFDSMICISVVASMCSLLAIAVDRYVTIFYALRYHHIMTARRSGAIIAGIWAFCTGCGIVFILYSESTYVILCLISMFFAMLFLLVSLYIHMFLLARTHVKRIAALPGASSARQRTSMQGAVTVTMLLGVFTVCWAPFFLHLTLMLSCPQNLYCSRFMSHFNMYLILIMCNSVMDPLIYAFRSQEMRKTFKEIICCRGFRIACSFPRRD

With retro-inverso α-MSH (peptide), the Ki in assay [1] is 4 nM; in assay [2] it was 4.1 nM; in assay [3] it was 4.6 nM; in assay [4] it was 25000 nM.
